Data: publication PMC6517241 (Chembiochem : a European journal of chemical biology, 2019)

Experiments:
[1] = Cellular toxicity; type: cell-based; conditions: Figure S6
[2] = test system: SH-SY5Y human neuroblastoma cells; assay: Flow cytometry quantitation of cellular uptake, SH-SY5Y; type: cell-based
[3] = ref 5b; cited from earlier work

Substance	Potency of L- and D-enantiomers as pore-forming antibacterial peptides [3]	other results
L-Aβ42-TAMRA: L-Aβ42 N-terminally labeled with 5(6)-Carboxytetramethylrhodamine (TAMRA)	–	Influence of N-terminal TAMRA modification on cellular toxicity [1]: not influence cellular toxicity to any significant degree; Cell fluorescence after incubation at 4 °C (membrane binding) ([2]; SH-SY5Y, 2 h, 4 °C, flow cytometry (Figure S12)): low fluorescence
L-Aβ42: natural L-stereoisomer of the 42 amino acid isoform of Amyloid β	–	Fraction taken up through chirality-dependent mechanisms (class I) ([2]; interpretation of the ~5:1 ratio): approximately 80%
cecropin	equally potent	–
magainin	equally potent	–
melittin	equally potent	–
